From patent publication US20090280488A1 (NATIONAL UNIVERSITY CORPORATION TOKYO MEDICAL AND DENTAL …, published 2009)

T1: normal ataxin-1 (AT1-30Q) (human, UniProt P54253 1-815)
T1 construct: mature; Polyglutamine tract of 30 glutamines; also called normal AT1; normal polyglutamine protein
T1 sequence (looked up): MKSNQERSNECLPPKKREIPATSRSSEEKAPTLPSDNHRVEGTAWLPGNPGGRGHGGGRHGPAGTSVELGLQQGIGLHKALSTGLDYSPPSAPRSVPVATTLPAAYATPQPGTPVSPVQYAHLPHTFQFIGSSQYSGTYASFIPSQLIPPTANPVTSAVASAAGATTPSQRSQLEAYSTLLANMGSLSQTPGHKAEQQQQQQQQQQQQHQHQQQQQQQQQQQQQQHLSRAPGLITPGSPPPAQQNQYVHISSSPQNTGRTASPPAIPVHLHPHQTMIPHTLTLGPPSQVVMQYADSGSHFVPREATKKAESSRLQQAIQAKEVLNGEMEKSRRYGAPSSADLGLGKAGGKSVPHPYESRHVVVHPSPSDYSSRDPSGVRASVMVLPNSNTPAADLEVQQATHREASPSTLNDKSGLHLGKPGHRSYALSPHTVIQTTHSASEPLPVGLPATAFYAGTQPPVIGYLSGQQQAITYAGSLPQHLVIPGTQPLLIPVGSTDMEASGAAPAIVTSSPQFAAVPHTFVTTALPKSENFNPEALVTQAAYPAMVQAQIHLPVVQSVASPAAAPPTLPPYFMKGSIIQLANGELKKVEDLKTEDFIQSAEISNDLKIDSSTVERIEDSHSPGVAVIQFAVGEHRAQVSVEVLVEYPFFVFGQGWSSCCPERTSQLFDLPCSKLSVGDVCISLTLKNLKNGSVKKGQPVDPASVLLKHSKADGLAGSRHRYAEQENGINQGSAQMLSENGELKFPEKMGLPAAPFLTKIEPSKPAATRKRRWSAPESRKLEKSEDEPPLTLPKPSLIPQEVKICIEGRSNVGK

B1: HMGB1-EGFP protein (rat HMGB1 expressed from pEGFP-N1-HMGB1) (other)
chain: MGKGDPKKPRGKMSSYAFFVQTCREEHKKKHPDASVNFSEFSKKCSERWKTMSAKEKGKFEDMAKADKARYEREMKTYIPPKGETKKKFKDPNAPKRPPSAFFLFCSEYRPKIKGEHPGLSIGDVAKKLGEMWNNTAADDKQPYEKKAAKLKEKYEKDIAAYRAKGKPDAAKKGVVKAEKSKKKKEEEDDEEDEEDEEEEEEEEDEDEEEDDDDE
notes: Expressed in HeLa cells by transfection; precipitated from the lysate with anti-HMGB or anti-EGFP antibody; The order HMGB1 then EGFP follows from the vector pEGFP-N1; HeLa cells also carry endogenous human HMGB1; also called HMGB-EGFP protein; not shown: EGFP and linker encoded by pEGFP-N1 (Clontech)
B2: HMGB2-EGFP protein (rat HMGB2 expressed from pEGFP-N1-HMGB2) (other)
chain: MGKGDPNKPRGKMSSYAFFVQTCREEHKKKHPDSSVNFAEFSKKCSERWKTMSAKEKSKFEDLAKSDKARYDREMKNYVPPKGDKKGKKKDPNAPKRPPSAFFLFCSEHRPKIKSEHPGLSIGDTAKKLGEMWSEQSAKDKQPYEQKAAKLKEKYEKDIAAYRAKGKSEVGKKGPGRPTGSKKKNEPEDEEEEEEEEDDEDEEEEDEDEE
notes: Expressed in HeLa cells by transfection; precipitated from the lysate with anti-HMGB or anti-EGFP antibody; The order HMGB2 then EGFP follows from the vector pEGFP-N1; also called HMGB-EGFP protein; not shown: EGFP and linker encoded by pEGFP-N1 (Clontech)

Tests used:
Assay in all cases: co-immunoprecipitation from HeLa cell lysate with anti-HMGB or anti-EGFP antibody, blot with CAG53b
[1] = molecular target: T1, normal ataxin-1 (AT1-30Q)
Procedure: (§1) HeLa cells (1×10⁶) in a 10 cm dish were transfected with pEGFP-N1, pEGFP-N1-HMGB1 or pEGFP-N1-HMGB2 using SuperFect (invitrogen). The cells were also infected with adenoviral vectors (AxCAwt, AxCA-HMGB1, AxCA-HMGB2, AxCA-htt20Q, AxCA-htt111Q, AxCA-AT1-30Q or AxCA-AT1-82Q) in the same manner as described above. Immunoprecipitation was performed according to a known technique (Okazawa, H. et al., Neuron. 34, 701-713. (2002)). Specifically, collected HeLa cells were incubated at 4° C. in TNE buffer (10 mM Tris-HCl (pH7.8), […], 0.15M NaCl, 1 mM EDTA) for 1 hour and were then centrifuged at 17,400×g for 20 min. The supernatant was preincubated with protein G-Sepharose (Amersham Biosciences) at 4° C. for 2 hours and then centrifuged. The supernatant was incubated with anti-HMGB1 antibody (1:600, BD Biosciences), anti-HMGB2 antibody (1:600, BD Biosciences) or anti-GFP antibody (1:600, Clontech) overnight and was subsequently incubated with protein G-Sepharose for 2 hours. The protein G beads were collected by centrifugation (2,000×g) for 5 min and washed 5 times with TNE buffer. The bound proteins were eluted with a sample buffer, separated by SDS-PAGE, and blotted with CAG53b antibody (Scherzinger, E. et al., Cell. 90, 549-558. (1997)).
(§2) A plasmid pEGFP-N-1-HMGB1/2 was transfected into Hela cells and the cells were infected with an adenoviral vector designed to express normal or mutant polyglutamine protein. The cells expressed normal or mutant polyglutamine protein. The expression levels of polyglutamine protein and HMGB-EGFP protein were checked by Western blot using CAG53b antibody and anti-GFP antibody (left panel in FIG. 5). Immunoprecipitation was performed using anti-HMGB or anti-EGFP antibody. […] The pull-down assay using HeLa cells expressing polyglutamine protein indicated interaction between mutant polyglutamine protein and HMGB protein (FIG. 6).

[2] = molecular target: B1
Procedure: as §1, §2

[3] = molecular target: B2
Procedure: as §1, §2

Binder | binding result [1] | binding result [2] | binding result [3]
B1 | no binding | – | –
normal huntingtin (Htt20Q) (other, human, UniProt P42858 1-88, looked up, domain: exon I; Only exon I of huntingtin, with 20 glutamines; also called normal Htt; normal polyglutamine protein) MATLEKLMKAFESLKSFQQQQQQQQQQQQQQQQQQQQQPPPPPPPPPPPQLPQPPPQAQPLLPQPQPPPPPPPPPPGPAVAEEPLHRP | – | no binding | no binding
B2 | no binding | – | –
